Assay results as given in PMC5225433.

Target: EMILIN1 gC1q domain, wild type (recombinant)
Assay: SDS-PAGE without boiling; purified gC1q (WT or mutant), incubated or not with NE at 37 °C, Laemmli buffer added, loaded on 4-20% gels without boiling to keep the trimer, Coomassie staining; trimer to monomers

Q: How did the stoichiometry N turn out when “EMILIN1 gC1q domain, wild type (recombinant) (domain or fragment)” was run?
A: 3
